The assay has as its target CD22. Put plainly: BLI. Background: In BLI a coated tip is dipped into the sample, and binding shifts an interference pattern.

The term Kd denotes the constant that tells how readily two partners part at equilibrium. As for Epratuzumab Fab, the Kd stood at 59 nM.

For the substance Epratuzumab Fab-Ferritin, the Kd was 51 nM.

The values above are taken from patent US12214052.
